# Measured values taken from patent publication US20230331816A1, “A METHOD FOR PREPARING PORCINE MYOGLOBIN USING ESCHERICHIA COLI” (iNtRON Biotechnology, Inc., priority 2020, published 2023).
# B1: porcine myoglobin: porcine myoglobin consisting of a globin of SEQ ID NO: 1 and a heme of formula 1, made with Escherichia coli (protein)
# chain: MGLSDGEWQLVLNVWGKVEADVAGHGQEVLIRLFKGHPETLEKFDKFKHLKSEDEMKASEDLKKHGNTVLTALGGILKKKGHHEAELTPLAQSHATKHKIPVKYLEFISEAIIQVLQSKHPGDFGADAQGAMSKALELFRNDMAAKYKELGFQG
# modifications: heme; Porcine myoglobin
# System: iron-deficiency-anemia-induced animals
# Format: in vivo, Sprague-Dawley rats
# Experimental: The composition containing porcine myoglobin prepared according to the present invention was administered to iron-deficiency-anemia-induced animals, whereby the effectiveness of the composition containing porcine myoglobin on alleviating anemia was evaluated. Specifically, after 2 weeks acclimation period, thirty 9-week old Sprague-Dawley rats (female) were divided into 3 groups of 10 rats per group, among which one group was fed with normal feed in an amount of 10% of body weight daily for […] (Group 1; control), and the remaining two groups were fed with iron-deficient feed in an amount of 10% of body weight daily for 6 weeks to induce iron-deficiency anemia (Group 2 and Group 3). After 6 weeks of feeding, it was confirmed that iron-deficiency anemia was induced in the individual rat belonging to Group 2 and Group 3. Then, one of the anemia-induced groups was orally administered once a day with saline alone (Group 2), and the other anemia-induced group was orally administered once a day with solution containing porcine myoglobin (0.1 mg Fe/500 μl solution, Group 3). The administration continued for 5 weeks. During 5 weeks of administration to Group 2 and Group 3, Group 1 was continuously fed with normal feed, and Group 2 and Group 3 were fed with iron-deficient feed. […] After 5 weeks of administration, blood was collected, and whether anemia was alleviated was evaluated.
# [1] = female Sprague-Dawley rats on iron-deficient feed, oral once a day, 0.1 mg Fe/500 μl solution, 5 weeks
molecule,measurement,setting,value
B1,Effectiveness at alleviating iron-deficiency anemia,conclusion from blood analysis after 5 weeks of administration,effective at alleviating iron-deficiency anemia
same,Blood test: Hematocrit,[1],39.8 ± 1.0%
same,Blood test: Hemoglobin content,[1],13.7 ± 0.6 g/dL
same,Weight of rats on 5 weeks after administration,[1],327.2 ± 3.1 g
